This is an account of results in PMC4853038.

The nature of data set [1]: Western blot of 293T-EmGFP lysates. The note with it: glycan lost; control: wild type.
The nature of data set [2]: co-transfection of WT and mutant, 293T-EmGFP syncytia. The note with it: glycan lost; control: WT syncytin-2 plus empty vector.
A short description of data set [3]: syncytia formation in 293T-EmGFP cells, 36 h. To be noted: glycan lost; control: wild type.

Consider syncytin-2: N133Q, for which the expression_or_secretion entry in data set [1] was “no change”. In addition, the “other: fusogenic activity of co-expressed wild type” value in data set [2] is “decreases”.
syncytin-2: N146Q: in data set [3], the “other: fusogenic activity, other: fusion score (−, +, ++)” value (from here on “other: fusogenic activity, other”) is recorded as “no change”. Besides, the expression_or_secretion entry in data set [1] is reported as “no change”.
Take syncytin-2: N177Q: the “other: fusogenic activity, other” value in data set [3] is given as “no change”. Further, in data set [1], the expression_or_secretion result was “no change”.
For the substance syncytin-2: N220Q, the “other: fusogenic activity, other” value in data set [3] is given as “no change”. Further, in data set [1], the expression_or_secretion entry is “no change”.
With syncytin-2: N241Q, the “other: fusogenic activity, other” value in data set [3] was “no change”. The expression_or_secretion result in data set [1] is “no change”.
For the substance syncytin-2: N247Q, the “other: fusogenic activity, other” value in data set [3] is on record as “no change”. The expression_or_secretion entry in data set [1] is on record as “no change”.
syncytin-2: N332Q: the “other: fusogenic activity, other” value in data set [3] is listed as “increases”. The expression_or_secretion entry in data set [1] is reported as “no change”.
As for syncytin-2: N443Q, the expression_or_secretion entry in data set [1] was “no change”. The “other: fusogenic activity of co-expressed wild type” value in data set [2] is reported as “decreases”.
